Patent US20190185537A1 (AstraZeneca / MedImmune, published 2019)
Where “and” joins values, the source holds several entries; their conditions need not be identical. Identical values can stand only once. Numbered stars: 1 amine (or outer) side, 2 acyl side, 3 side chain; on linkers, the order of the positions; unused ones are H or OH. Side chains are listed from the residue outwards. Ends that are not written are not given here. * marks the point of attachment. γGlu = O=C(O)[C@H](CCC(=O)[*:2])N[*:1]; Palmitoyl = CCCCCCCCCCCCCCCC(=O)*; Ahx = NCCCCCC(=O)O

Columns and labels:
human glucagon receptor = human glucagon receptor (human, UniProt P47871 26-477); assay: cell-based or functional assay
human glucagon receptor, sequence (P47871 26-477): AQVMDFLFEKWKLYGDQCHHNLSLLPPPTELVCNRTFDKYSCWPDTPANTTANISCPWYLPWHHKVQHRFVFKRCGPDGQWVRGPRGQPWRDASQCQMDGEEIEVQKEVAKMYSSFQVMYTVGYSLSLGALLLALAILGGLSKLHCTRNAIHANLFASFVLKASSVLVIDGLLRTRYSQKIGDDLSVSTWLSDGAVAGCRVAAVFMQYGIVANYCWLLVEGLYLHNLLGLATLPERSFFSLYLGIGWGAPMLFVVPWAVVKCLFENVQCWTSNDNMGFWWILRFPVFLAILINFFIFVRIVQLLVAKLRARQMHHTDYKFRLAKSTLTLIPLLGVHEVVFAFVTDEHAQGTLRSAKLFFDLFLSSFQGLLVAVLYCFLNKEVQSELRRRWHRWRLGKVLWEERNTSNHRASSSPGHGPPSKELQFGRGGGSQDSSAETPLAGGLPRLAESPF

human GLP-1 receptor = human GLP-1 receptor (human, UniProt P43220 24-463); assay: cell-based or functional assay
human GLP-1 receptor, sequence (P43220 24-463): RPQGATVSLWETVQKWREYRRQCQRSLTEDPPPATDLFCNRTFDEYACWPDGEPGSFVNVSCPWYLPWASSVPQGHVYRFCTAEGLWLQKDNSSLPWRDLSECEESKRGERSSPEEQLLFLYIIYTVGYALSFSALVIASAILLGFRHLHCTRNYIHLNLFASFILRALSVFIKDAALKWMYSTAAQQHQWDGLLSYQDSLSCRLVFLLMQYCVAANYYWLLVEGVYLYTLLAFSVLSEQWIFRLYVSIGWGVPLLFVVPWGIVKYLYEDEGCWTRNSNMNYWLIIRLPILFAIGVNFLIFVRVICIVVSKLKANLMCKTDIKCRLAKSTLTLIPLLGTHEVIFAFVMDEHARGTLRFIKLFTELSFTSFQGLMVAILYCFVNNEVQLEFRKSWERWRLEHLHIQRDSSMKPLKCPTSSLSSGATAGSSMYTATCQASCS

Binder | cAMP EC50 (assay 1) (human glucagon receptor) | cAMP EC50 (assay 1) (human GLP-1 receptor)
HGQGTFTSDYSK([γGlu-Palmitoyl])YLDSERAQDFVQWLERGG-NH2 (N-terminus assumed; SMILES CCCCCCCCCCCCCCCC(=O)N[C@@H](CCC(=O)NCCCC[C@H](NC(=O)[C@H](CO)NC(=O)[C@H](Cc1ccc(O)cc1)NC(=O)[C@H](CC(=O)O)NC(=O)[C@H](CO)NC(=O)[C@@H](NC(=O)[C@H](Cc1ccccc1)NC(=O)[C@@H](NC(=O)CNC(=O)[C@H](CCC(N)=O)NC(=O)CNC(=O)[C@@H](N)Cc1c[nH]cn1)[C@@H](C)O)[C@@H](C)O)C(=O)N[C@@H](Cc1ccc(O)cc1)C(=O)N[C@@H](CC(C)C)C(=O)N[C@@H](CC(=O)O)C(=O)N[C@@H](CO)C(=O)N[C@@H](CCC(=O)O)C(=O)N[C@@H](CCCNC(=N)N)C(=O)N[C@@H](C)C(=O)N[C@@H](CCC(N)=O)C(=O)N[C@@H](CC(=O)O)C(=O)N[C@@H](Cc1ccccc1)C(=O)N[C@H](C(=O)N[C@@H](CCC(N)=O)C(=O)N[C@@H](Cc1c[nH]c2ccccc12)C(=O)N[C@@H](CC(C)C)C(=O)N[C@@H](CCC(=O)O)C(=O)N[C@@H](CCCNC(=N)N)C(=O)NCC(=O)NCC(N)=O)C(C)C)C(=O)O) [g701] | 3.83 nM | 7.4 nM
HSQGTFTSDYSKYLDSRRAQDFVQWLVAGGGGGGK-NH2 [g325] | 0.0103 nM | 0.0261 nM
HSQGTFTSDYSKYLDSRRAQDFVK([γGlu-Palmitoyl])WLEAGG-NH2 (N-terminus assumed; SMILES CCCCCCCCCCCCCCCC(=O)N[C@@H](CCC(=O)NCCCC[C@H](NC(=O)[C@@H](NC(=O)[C@H](Cc1ccccc1)NC(=O)[C@H](CC(=O)O)NC(=O)[C@H](CCC(N)=O)NC(=O)[C@H](C)NC(=O)[C@H](CCCNC(=N)N)NC(=O)[C@H](CCCNC(=N)N)NC(=O)[C@H](CO)NC(=O)[C@H](CC(=O)O)NC(=O)[C@H](CC(C)C)NC(=O)[C@H](Cc1ccc(O)cc1)NC(=O)[C@H](CCCCN)NC(=O)[C@H](CO)NC(=O)[C@H](Cc1ccc(O)cc1)NC(=O)[C@H](CC(=O)O)NC(=O)[C@H](CO)NC(=O)[C@@H](NC(=O)[C@H](Cc1ccccc1)NC(=O)[C@@H](NC(=O)CNC(=O)[C@H](CCC(N)=O)NC(=O)[C@H](CO)NC(=O)[C@@H](N)Cc1c[nH]cn1)[C@@H](C)O)[C@@H](C)O)C(C)C)C(=O)N[C@@H](Cc1c[nH]c2ccccc12)C(=O)N[C@@H](CC(C)C)C(=O)N[C@@H](CCC(=O)O)C(=O)N[C@@H](C)C(=O)NCC(=O)NCC(N)=O)C(=O)O) [g746] | 0.0354 nM | 11.5 nM
HSQGTFTSDYSKYLDSRRAQDFVQWLVAGGSSGGSSK(Palmitoyl)-NH2 (N-terminus assumed; SMILES CCCCCCCCCCCCCCCC(=O)NCCCC[C@H](NC(=O)[C@H](CO)NC(=O)[C@H](CO)NC(=O)CNC(=O)CNC(=O)[C@H](CO)NC(=O)[C@H](CO)NC(=O)CNC(=O)CNC(=O)[C@H](C)NC(=O)[C@@H](NC(=O)[C@H](CC(C)C)NC(=O)[C@H](Cc1c[nH]c2ccccc12)NC(=O)[C@H](CCC(N)=O)NC(=O)[C@@H](NC(=O)[C@H](Cc1ccccc1)NC(=O)[C@H](CC(=O)O)NC(=O)[C@H](CCC(N)=O)NC(=O)[C@H](C)NC(=O)[C@H](CCCNC(=N)N)NC(=O)[C@H](CCCNC(=N)N)NC(=O)[C@H](CO)NC(=O)[C@H](CC(=O)O)NC(=O)[C@H](CC(C)C)NC(=O)[C@H](Cc1ccc(O)cc1)NC(=O)[C@H](CCCCN)NC(=O)[C@H](CO)NC(=O)[C@H](Cc1ccc(O)cc1)NC(=O)[C@H](CC(=O)O)NC(=O)[C@H](CO)NC(=O)[C@@H](NC(=O)[C@H](Cc1ccccc1)NC(=O)[C@@H](NC(=O)CNC(=O)[C@H](CCC(N)=O)NC(=O)[C@H](CO)NC(=O)[C@@H](N)Cc1c[nH]cn1)[C@@H](C)O)[C@@H](C)O)C(C)C)C(C)C)C(N)=O) [g318] | 9.04 nM | 1.14 nM
HSQGTFTSDYSKYLDSRRAQDFVQWLVAGGSGSGSG-NH2 [g402] | 0.0596 nM | 0.0857 nM
HSQGTFTSDYSKYLDSRRAK([γGlu-Palmitoyl])DFVQWLEAGG-NH2 (N-terminus assumed; SMILES CCCCCCCCCCCCCCCC(=O)N[C@@H](CCC(=O)NCCCC[C@H](NC(=O)[C@H](C)NC(=O)[C@H](CCCNC(=N)N)NC(=O)[C@H](CCCNC(=N)N)NC(=O)[C@H](CO)NC(=O)[C@H](CC(=O)O)NC(=O)[C@H](CC(C)C)NC(=O)[C@H](Cc1ccc(O)cc1)NC(=O)[C@H](CCCCN)NC(=O)[C@H](CO)NC(=O)[C@H](Cc1ccc(O)cc1)NC(=O)[C@H](CC(=O)O)NC(=O)[C@H](CO)NC(=O)[C@@H](NC(=O)[C@H](Cc1ccccc1)NC(=O)[C@@H](NC(=O)CNC(=O)[C@H](CCC(N)=O)NC(=O)[C@H](CO)NC(=O)[C@@H](N)Cc1c[nH]cn1)[C@@H](C)O)[C@@H](C)O)C(=O)N[C@@H](CC(=O)O)C(=O)N[C@@H](Cc1ccccc1)C(=O)N[C@H](C(=O)N[C@@H](CCC(N)=O)C(=O)N[C@@H](Cc1c[nH]c2ccccc12)C(=O)N[C@@H](CC(C)C)C(=O)N[C@@H](CCC(=O)O)C(=O)N[C@@H](C)C(=O)NCC(=O)NCC(N)=O)C(C)C)C(=O)O) [g744] | 0.0392 nM | 2.45 nM
HGEGTFTSDYSKYLDSK([γGlu-Palmitoyl])RAADFVAWLVAGG-NH2 (N-terminus assumed; SMILES CCCCCCCCCCCCCCCC(=O)N[C@@H](CCC(=O)NCCCC[C@H](NC(=O)[C@H](CO)NC(=O)[C@H](CC(=O)O)NC(=O)[C@H](CC(C)C)NC(=O)[C@H](Cc1ccc(O)cc1)NC(=O)[C@H](CCCCN)NC(=O)[C@H](CO)NC(=O)[C@H](Cc1ccc(O)cc1)NC(=O)[C@H](CC(=O)O)NC(=O)[C@H](CO)NC(=O)[C@@H](NC(=O)[C@H](Cc1ccccc1)NC(=O)[C@@H](NC(=O)CNC(=O)[C@H](CCC(=O)O)NC(=O)CNC(=O)[C@@H](N)Cc1c[nH]cn1)[C@@H](C)O)[C@@H](C)O)C(=O)N[C@@H](CCCNC(=N)N)C(=O)N[C@@H](C)C(=O)N[C@@H](C)C(=O)N[C@@H](CC(=O)O)C(=O)N[C@@H](Cc1ccccc1)C(=O)N[C@H](C(=O)N[C@@H](C)C(=O)N[C@@H](Cc1c[nH]c2ccccc12)C(=O)N[C@@H](CC(C)C)C(=O)N[C@H](C(=O)N[C@@H](C)C(=O)NCC(=O)NCC(N)=O)C(C)C)C(C)C)C(=O)O) [g737] | 734 nM | 0.0814 nM
HSQGTFTSDYSKYLDSERAK([Ahx-Palmitoyl])DFVAWLERGG-NH2 (not fully specified) [g787] | 0.0436 nM | 6.65 nM
HSQGTFTSDYSKYLDSRRAQDFVQWLVAGGSSGGSSK-NH2 [g317] | – | 2.63 nM
HGQGTFTSDYSRYLDSK([γGlu-Palmitoyl])RARDFVEWLVAGG-NH2 (N-terminus assumed; SMILES CCCCCCCCCCCCCCCC(=O)N[C@@H](CCC(=O)NCCCC[C@H](NC(=O)[C@H](CO)NC(=O)[C@H](CC(=O)O)NC(=O)[C@H](CC(C)C)NC(=O)[C@H](Cc1ccc(O)cc1)NC(=O)[C@H](CCCNC(=N)N)NC(=O)[C@H](CO)NC(=O)[C@H](Cc1ccc(O)cc1)NC(=O)[C@H](CC(=O)O)NC(=O)[C@H](CO)NC(=O)[C@@H](NC(=O)[C@H](Cc1ccccc1)NC(=O)[C@@H](NC(=O)CNC(=O)[C@H](CCC(N)=O)NC(=O)CNC(=O)[C@@H](N)Cc1c[nH]cn1)[C@@H](C)O)[C@@H](C)O)C(=O)N[C@@H](CCCNC(=N)N)C(=O)N[C@@H](C)C(=O)N[C@@H](CCCNC(=N)N)C(=O)N[C@@H](CC(=O)O)C(=O)N[C@@H](Cc1ccccc1)C(=O)N[C@H](C(=O)N[C@@H](CCC(=O)O)C(=O)N[C@@H](Cc1c[nH]c2ccccc12)C(=O)N[C@@H](CC(C)C)C(=O)N[C@H](C(=O)N[C@@H](C)C(=O)NCC(=O)NCC(N)=O)C(C)C)C(C)C)C(=O)O) [g720] | 0.352 nM | 0.0534 nM
HGQGTFTSDYSKYLDSK([γGlu-Palmitoyl])RAADFVAWLVAGG-NH2 (N-terminus assumed; SMILES CCCCCCCCCCCCCCCC(=O)N[C@@H](CCC(=O)NCCCC[C@H](NC(=O)[C@H](CO)NC(=O)[C@H](CC(=O)O)NC(=O)[C@H](CC(C)C)NC(=O)[C@H](Cc1ccc(O)cc1)NC(=O)[C@H](CCCCN)NC(=O)[C@H](CO)NC(=O)[C@H](Cc1ccc(O)cc1)NC(=O)[C@H](CC(=O)O)NC(=O)[C@H](CO)NC(=O)[C@@H](NC(=O)[C@H](Cc1ccccc1)NC(=O)[C@@H](NC(=O)CNC(=O)[C@H](CCC(N)=O)NC(=O)CNC(=O)[C@@H](N)Cc1c[nH]cn1)[C@@H](C)O)[C@@H](C)O)C(=O)N[C@@H](CCCNC(=N)N)C(=O)N[C@@H](C)C(=O)N[C@@H](C)C(=O)N[C@@H](CC(=O)O)C(=O)N[C@@H](Cc1ccccc1)C(=O)N[C@H](C(=O)N[C@@H](C)C(=O)N[C@@H](Cc1c[nH]c2ccccc12)C(=O)N[C@@H](CC(C)C)C(=O)N[C@H](C(=O)N[C@@H](C)C(=O)NCC(=O)NCC(N)=O)C(C)C)C(C)C)C(=O)O) [g736] | 0.919 nM and 0.92 nM | 0.0854 nM
